{
  "source": "patent US20230046744A1",
  "about": "(APO T B V, published 2023)",
  "binders": {"B1": {"name": "murine 9A7 IgG (antibody, V domains shown)", "VH": "QVQLQQPGAELVKPGASVKLSCKASGYTFTSFWMHWVKQRPGQGLEWIGEIDSSDSYTNYNQKFKGKATLTVDKSSSTAYMQLSSLTSDDSAVYYCARRVGRGYFDYWGQGTTLTVSS", "VL": "DIVMTQSHKFMSTSVGDRVSITCKASQDVRTAVVWYQQKPGQSPKLLIYWASTRHTGVPDRFTGSGSGTDYILTISSVQAEDLALYYCQQYDTTPWTFGGGTKVEIK", "notes": "mouse IgG from hybridoma; also called mouse 9A7 IgG; 9A7 murine antibody"}, "B2": {"name": "4A6 IgG (antibody, V domains shown)", "VH": "EVQLVQSGAEVKKPGSSVKVSCKASGGTFSSYAISWVRQAPGQGLEWMGGIIPIFGTADYAQKFQGRATITADESTSTAYMELSSLRSEDTAVYYCARDYDFWSGYYAGDVWGQGTTVTVSS", "VL": "QSALTQPASVSGSPGQSITISCTGTSSDVGGYNYVSWYQQHPGKAPKLMIYDVSNRPSGVSNRFSGSKSGNTASLTISGLQAEDEADYYCSSYTSSSTRVFGGGTKLTVL", "notes": "IgG detected with anti-human IgG; also called 4A6 antibody"}, "B3": {"name": "4A6_SC_FV (scFv, V domains shown)", "VH": "B2 VH", "VL": "B2 VL", "notes": "scFv of 4A6; VH and VL are those named for 4A6; also called monospecific antibody fragment"}},
  "key": {"[1]": {"target": "HLA-A*2402/… complex on CHO-S cells (human)", "test": "flow cytometry on CHO-S transfectants", "method": "Non transfected CHO-S cells were used as a control. For the staining 200′000 cells were suspended in 100 μl PBS containing 0.1% BSA. […] After 30 minutes incubation at 40° C. the cells were washed two times with 200 μl PBS containing 0.1% BSA. […] After the incubation, cells were washed again two times with 200 μl PBS containing 0.1% BSA."}, "[2]": {"target": "T1, biotinylated HLA-A*2402/… complex (human, biotinylated complex, site not stated)", "T1 construct": "control complex on streptavidin plates", "test": "ELISA, biotinylated complexes on streptavidin plates"}, "[3]": {"target": "T2, biotinylated HLA-A*2402/… complex (human, biotinylated complex, site not stated)", "T2 construct": "recombinant complex on streptavidin plates", "test": "ELISA, biotinylated complexes on streptavidin plates, dilution series of the antibody"}, "[4]": {"target": "T3, HLA-A*0201/… with alanine at peptide position 3, on peptide-pulsed JY cells (human)", "T3 construct": "built from the parent peptide and the stated change", "test": "flow cytometry, peptide-pulsed JY cells", "method": "(§1) Briefly, 200′000 JY cells were incubated (pulsed) overnight under serum free conditions with 100 μg/ml peptide variants. The amino acids of the used peptides were sequentially substituted for an alanine (information regarding sequences of peptides is summarized FIG. 3B)."}, "[5]": {"target": "T4, HLA-A*0201/… with alanine at peptide position 4, on peptide-pulsed JY cells (human)", "T4 construct": "built from the parent peptide and the stated change", "test": "flow cytometry, peptide-pulsed JY cells", "method": "as §1"}, "[6]": {"target": "T5, HLA-A*0201/… with alanine at peptide position 5, on peptide-pulsed JY cells (human)", "T5 construct": "built from the parent peptide and the stated change", "test": "flow cytometry, peptide-pulsed JY cells", "method": "as §1"}, "[7]": {"target": "T6, HLA-A*0201/… with alanine at peptide position 6, on peptide-pulsed JY cells (human)", "T6 construct": "built from the parent peptide and the stated change", "test": "flow cytometry, peptide-pulsed JY cells", "method": "as §1"}, "[8]": {"target": "T7, CD3 molecule expressed on the surface of T cells (human, UniProt P07766 23-207)", "T7 construct": "whole, on cells; CD3 complex on cells; also called CD3 on PBMCs; CD3 on surface of immune effector cells", "T7 sequence (P07766 23-207)": "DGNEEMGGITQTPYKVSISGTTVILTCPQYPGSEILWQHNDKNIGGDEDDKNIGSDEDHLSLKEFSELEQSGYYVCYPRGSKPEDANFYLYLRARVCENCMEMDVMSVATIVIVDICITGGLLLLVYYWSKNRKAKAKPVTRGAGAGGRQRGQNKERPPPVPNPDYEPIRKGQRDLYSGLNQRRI", "test": "flow cytometry on PBMCs"}},
  "data": [
    {"binder": "B1", "values": [
      {"measurement": "binding result", "setting": "[1]", "value": "no binding (tested: dilution series starting at 222 nM)"},
      {"measurement": "binding result", "setting": "[2]", "value": "no binding (tested: dilution series starting at 100 nM)"},
      {"measurement": "IC50", "setting": "[3]", "value": 0.037, "unit": "nM"}
    ]},
    {"binder": "B2", "values": [
      {"measurement": "binding result", "setting": "[4]", "value": "no binding"},
      {"measurement": "binding result", "setting": "[5]", "value": "no binding"},
      {"measurement": "binding result", "setting": "[6]", "value": "no binding"},
      {"measurement": "binding result", "setting": "[7]", "value": "no binding"}
    ]},
    {"binder": "B3", "values": [
      {"measurement": "binding result", "setting": "[8]", "value": "no binding (tested: 50 ng/ml)"}
    ]}
  ]
}
